According to patent US12503511 (COMPASS THERAPEUTICS, dated 2025):
Substitutions are numbered along the chain they refer to. One block for each binder: values may come before it.

What was measured:
[1] = target: T1, murine PD-L1 expressed on cells (murine, UniProt Q9EP73 19-290); assay: cell binding titration, A20 cells expressing murine PD-L1
T1 construct: whole, on cells; also called muPDL1; mouse PD-L1

[2] = target: T2, purified recombinant His tagged human PD-L1 (human, UniProt Q9NZQ7 19-238); assay: SPR KD; fold improvement, reference taken as parent mAb24
T2 construct: not shown: His tag
T2 sequence (Q9NZQ7 19-238 limits assumed): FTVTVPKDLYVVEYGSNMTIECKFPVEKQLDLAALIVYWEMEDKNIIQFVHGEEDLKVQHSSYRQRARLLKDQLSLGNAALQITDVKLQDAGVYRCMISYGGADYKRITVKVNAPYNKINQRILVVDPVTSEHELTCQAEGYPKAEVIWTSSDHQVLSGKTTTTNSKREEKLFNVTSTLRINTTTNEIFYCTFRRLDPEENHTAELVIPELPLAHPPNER

[3] = target: T3, cyno PD-L1 expressed on cells (cynomolgus); assay: cell binding titration, HEK cells expressing cyno PD-L1
T3 construct: whole, on cells; also called cynomolgus PD-L1

[4] = target: T3, cyno PD-L1 expressed on cells; assay: cell binding EC50 on HEK-cyno PD-L1; fold improvement, reference taken as parent mAb24
[5] = target: T2, purified recombinant His tagged human …; assay: SPR (Carterra MX96), antibody on chip, His-tagged human PD-L1 injected
[6] = target: T4, human PD-L1 expressed on cells (human, UniProt Q9NZQ7 19-290); assay: cell binding titration, HEK cells expressing human PD-L1
T4 construct: also called huPDL1; human PD-L1 on HEK cells
T4 sequence (Q9NZQ7 19-290 limits assumed): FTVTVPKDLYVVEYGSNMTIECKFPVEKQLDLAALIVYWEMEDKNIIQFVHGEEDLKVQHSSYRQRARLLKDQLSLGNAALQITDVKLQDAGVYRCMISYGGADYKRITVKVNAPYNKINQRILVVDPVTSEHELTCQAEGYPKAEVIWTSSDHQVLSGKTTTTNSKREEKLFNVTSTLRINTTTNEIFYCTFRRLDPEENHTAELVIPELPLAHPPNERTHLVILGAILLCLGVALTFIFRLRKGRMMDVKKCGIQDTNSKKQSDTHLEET

[7] = target: T4, human PD-L1 expressed on cells; assay: cell binding EC50 on HEK-human PD-L1; fold improvement, reference taken as parent mAb24
[8] = target: T5, cyno PD-1 expressed on cells (cynomolgus); assay: cell binding titration, CHO cells expressing cyno PD-1
T5 construct: whole, on cells; also called cyPD-1; cynomolgus PD-1

[9] = target: T6, human PD-1 expressed on cells (human, UniProt Q15116 25-288); assay: cell binding titration, CHO cells expressing human PD-1
T6 construct: also called huPD-1; CHO cells expressing human PD-1
T6 sequence (Q15116 25-288 limits assumed): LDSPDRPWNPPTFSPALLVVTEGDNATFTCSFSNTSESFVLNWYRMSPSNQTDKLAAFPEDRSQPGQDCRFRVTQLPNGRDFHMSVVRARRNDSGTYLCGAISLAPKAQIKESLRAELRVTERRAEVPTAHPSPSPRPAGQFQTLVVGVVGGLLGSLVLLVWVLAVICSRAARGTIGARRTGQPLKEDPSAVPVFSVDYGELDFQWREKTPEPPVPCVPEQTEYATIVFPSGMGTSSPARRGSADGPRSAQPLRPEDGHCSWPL

[10] = target: T7, purified recombinant His tagged human PD-1 (human, UniProt Q15116 25-170); assay: SPR (Carterra MX96), antibody on chip, His-tagged human PD-1 injected
T7 construct: not shown: His tag
T7 sequence (Q15116 25-170 limits assumed): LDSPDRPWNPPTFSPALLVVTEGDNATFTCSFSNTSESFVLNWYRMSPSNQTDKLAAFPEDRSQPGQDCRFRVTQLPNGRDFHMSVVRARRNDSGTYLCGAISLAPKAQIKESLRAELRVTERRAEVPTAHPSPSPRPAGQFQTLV

[11] = target: T8, murine PD-1 expressed on cells (murine, UniProt Q02242 25-288); assay: cell binding titration, CHO cells expressing murine PD-1
T8 construct: whole, on cells; also called muPD-1; mouse PD-1
T8 sequence (looked up): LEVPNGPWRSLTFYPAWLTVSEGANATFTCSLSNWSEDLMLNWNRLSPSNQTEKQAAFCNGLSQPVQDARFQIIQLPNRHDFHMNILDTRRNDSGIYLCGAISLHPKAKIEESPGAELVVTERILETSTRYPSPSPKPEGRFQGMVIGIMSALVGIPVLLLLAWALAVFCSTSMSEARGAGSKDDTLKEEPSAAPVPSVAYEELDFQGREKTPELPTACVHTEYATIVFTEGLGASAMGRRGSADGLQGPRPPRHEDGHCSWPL

[12] = target: T6, human PD-1 expressed on cells; assay: cell binding EC50 on CHO-human PD-1; fold improvement over parent mAb25
[13] = target: T7, purified recombinant His tagged human …; assay: SPR KD; fold improvement over parent mAb25
[14] = target: T5, cyno PD-1 expressed on cells; assay: cell binding EC50 on CHO-cyno PD-1; fold improvement over parent mAb25

T1 sequence (Q9EP73 19-290): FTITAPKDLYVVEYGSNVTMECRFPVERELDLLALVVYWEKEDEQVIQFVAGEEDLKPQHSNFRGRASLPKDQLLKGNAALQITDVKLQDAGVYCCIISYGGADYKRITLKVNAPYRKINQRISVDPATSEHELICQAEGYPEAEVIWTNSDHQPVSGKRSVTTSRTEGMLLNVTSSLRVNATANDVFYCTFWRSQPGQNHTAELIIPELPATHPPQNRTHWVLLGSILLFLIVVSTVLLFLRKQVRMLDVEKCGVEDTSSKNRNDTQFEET

B1: mAb8 (antibody, V domains shown)
VH: QVQLVQSGAEVKKPGSSVKVSCKASGGTFSSYAINWVRQAPGQGLEWMGGIIPVFGTATYAQKFQGRVTITADESTSTAYMELSSLRSEDTAVYYCARLKFELKDAFDIWGQGTLVTVSS
VL: not shown
- binding result [1]: no binding
- Fold Improvement [2]: 1.2 fold
- EC50 [3]: 0.08 nM
- Fold Improvement [4]: 3.42 fold
- Kd [5]: 3.7 nM

B15: mAb25 (antibody, V domains shown)
VH: EVQLLESGGGLVQPGGSLRLSCAASGFTFSDYAMSWVRQAPGKGLEWVSAISNSGTYTYYADSVKGRFTISRDNSKNTLYLQMNSLRAEDTAVYYCARGLDFIVGATGNDYWGQGTLVTVSS
VL: not shown
notes: also called parent PD-1 antibody mAb25
- EC50 [8]: 8.59 nM
- EC50 [9]: 0.915 nM
- Kd [10]: 240 nM
- binding result [11]: no binding

B16: mAb35 (antibody, V domains shown)
VH: B15 VH with D31G, A106R
VL: not shown
- Fold improvement over Parent [12]: 0.6 fold
- Fold improvement over Parent [13]: 27 fold
- Fold improvement over Parent [14]: 3.2 fold
- EC50 [8]: 2.66 nM
- EC50 [9]: 1.64 nM
- Kd [10]: 9 nM

B17: mAb33 (antibody, V domains shown)
VH: B15 VH with S30N, D31S, A106Y
VL: not shown
- Fold improvement over Parent [12]: 0.9 fold
- Fold improvement over Parent [13]: 34 fold
- Fold improvement over Parent [14]: 6.5 fold
- EC50 [8]: 1.33 nM
- EC50 [9]: 1.04 nM
- Kd [10]: 7 nM
- EC50 [11]: 10.4 nM

B18: mAb26 (antibody, V domains shown)
VH: B15 VH with A106Y
VL: not shown
- Fold improvement over Parent [12]: 0.2 fold
- Fold improvement over Parent [13]: 24 fold
- Fold improvement over Parent [14]: 5.6 fold
- EC50 [8]: 1.54 nM
- EC50 [9]: 3.74 nM
- Kd [10]: 10 nM
- EC50 [11]: 17.9 nM

B19: mAb31 (antibody, V domains shown)
VH: B15 VH with S30R, D31S, A106Y
VL: not shown
- Fold improvement over Parent [12]: 0.5 fold
- Fold improvement over Parent [13]: 44 fold
- Fold improvement over Parent [14]: 4.5 fold
- EC50 [8]: 1.9 nM
- EC50 [9]: 1.71 nM
- Kd [10]: 5.5 nM
- EC50 [11]: 1.87 nM

B22: mAb34 (antibody, V domains shown)
VH: B15 VH with D31N
VL: not shown
- Fold improvement over Parent [12]: 0.2 fold
- Fold improvement over Parent [13]: 33 fold
- Fold improvement over Parent [14]: 6.5 fold
- EC50 [8]: 1.33 nM
- EC50 [9]: 3.87 nM
- Kd [10]: 7.2 nM
- EC50 [11]: 20.5 nM

B23: mAb30 (antibody, V domains shown)
VH: B15 VH with D31A, S35N, A106Y
VL: not shown
- Fold improvement over Parent [12]: 0.3 fold
- Fold improvement over Parent [13]: 77 fold
- Fold improvement over Parent [14]: 4.2 fold
- EC50 [8]: 2.05 nM
- EC50 [9]: 2.77 nM
- Kd [10]: 3.1 nM
- EC50 [11]: 4.05 nM

B24: mAb32 (antibody, V domains shown)
VH: B15 VH with S30G, D31R, A106Y
VL: not shown
- Fold improvement over Parent [12]: 0.6 fold
- Fold improvement over Parent [13]: 114 fold
- Fold improvement over Parent [14]: 6.7 fold
- EC50 [8]: 1.29 nM
- EC50 [9]: 1.51 nM
- Kd [10]: 2.1 nM
- EC50 [11]: 2.8 nM

B25: mAb29 (antibody, V domains shown)
VH: B15 VH with D31N, M34L, A106Y
VL: not shown
- Fold improvement over Parent [12]: 0.7 fold
- Fold improvement over Parent [13]: 28 fold
- Fold improvement over Parent [14]: 5 fold
- EC50 [8]: 1.73 nM
- EC50 [9]: 1.27 nM
- Kd [10]: 8.6 nM
- EC50 [11]: 2.14 nM

B26: mAb27 (antibody, V domains shown)
VH: B15 VH with D31S, A106Y
VL: not shown
- Fold improvement over Parent [12]: 0.5 fold
- Fold improvement over Parent [13]: 104 fold
- Fold improvement over Parent [14]: 5.6 fold
- EC50 [8]: 1.53 nM
- EC50 [9]: 1.75 nM
- Kd [10]: 2.3 nM
- EC50 [11]: 6.14 nM

Continued, values first:

- binding result [1]: no binding
- EC50 [6]: 0.06 nM
- Fold Improvement [2]: 0.8 fold
- EC50 [3]: 0.07 nM
- Fold Improvement [4]: 4.15 fold
- Fold Improvement [7]: 2.5 fold
- Kd [5]: 5.4 nM
B2: mAb9 (antibody, V domains shown)
VH: B1 VH with F101G, I109E
VL: not shown

- binding result [1]: no binding
- EC50 [6]: 0.18 nM
- Fold Improvement [2]: 1.8 fold
- EC50 [3]: 0.32 nM
- Fold Improvement [4]: 0.89 fold
- Fold Improvement [7]: 0.8 fold
- Kd [5]: 2.5 nM
B3: mAb22 (antibody, V domains shown)
VH: B1 VH with F101G, L115M
VL: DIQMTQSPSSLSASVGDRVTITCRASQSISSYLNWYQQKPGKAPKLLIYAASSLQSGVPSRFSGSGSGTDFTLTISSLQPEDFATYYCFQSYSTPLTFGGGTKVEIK

- binding result [1]: no binding
B4: mAb15 (antibody, V domains shown)
VH: B1 VH with N35S, G50R, I52N, V54I, F55L, T59N, F101G, D108S
VL: not shown

- binding result [1]: no binding
- EC50 [6]: 1.23 nM
- Fold Improvement [7]: 0.1 fold
- Kd [5]: 358 nM
B5: mAb12 (antibody, V domains shown)
VH: B1 VH with N35S, G44D, V54I, F55V, T57I, T59N, F101G
VL: not shown

- binding result [1]: no binding
- EC50 [6]: 0.09 nM
- Fold Improvement [2]: 0.2 fold
- EC50 [3]: 0.39 nM
- Fold Improvement [4]: 0.74 fold
- Fold Improvement [7]: 1.5 fold
- Kd [5]: 27.1 nM
B6: mAb5 (antibody, V domains shown)
VH: B1 VH with I34F, N35S, F101G
VL: not shown

- binding result [1]: no binding
B7: mAb7 (antibody, V domains shown)
VH: B1 VH with V54N, F101G, D105G, F107G
VL: not shown

- binding result [1]: no binding
- EC50 [6]: 0.13 nM
- Fold Improvement [2]: 0.1 fold
- EC50 [3]: 0.47 nM
- Fold Improvement [4]: 0.61 fold
- Fold Improvement [7]: 1.1 fold
- Kd [5]: 35.9 nM
B8: mAb6 (antibody, V domains shown)
VH: B1 VH with V54I, T57I, T59N, F101G
VL: not shown

- binding result [1]: no binding
- EC50 [6]: 0.83 nM
- Fold Improvement [7]: 0.2 fold
- Kd [5]: 369 nM
B9: mAb23 (antibody, V domains shown)
VH: B1 VH with F101G, L115M
VL: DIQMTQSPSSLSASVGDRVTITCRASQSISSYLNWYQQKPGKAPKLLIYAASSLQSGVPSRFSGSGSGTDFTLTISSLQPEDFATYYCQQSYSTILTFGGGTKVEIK

- binding result [1]: no binding
B10: mAb16 (antibody, V domains shown)
VH: B1 VH with G50R, V54I, T59D, F101G
VL: not shown

- binding result [1]: no binding
- EC50 [6]: 1.54 nM
- Fold Improvement [7]: 0.1 fold
B11: mAb14 (antibody, V domains shown)
VH: B1 VH with N35S, G50R, V54L, T59H, F101G
VL: not shown

- binding result [1]: no binding
- EC50 [6]: 1.43 nM
- Fold Improvement [2]: 0.1 fold
- Fold Improvement [7]: 1 fold
- Kd [5]: 52.3 nM
B12: mAb13 (antibody, V domains shown)
VH: B1 VH with N35S, F101G, L103F
VL: not shown

- binding result [1]: no binding
- EC50 [6]: 0.14 nM
- Fold Improvement [2]: 0.1 fold
- Fold Improvement [7]: 1 fold
- Kd [5]: 91.5 nM
B13: mAb21 (antibody, V domains shown)
VH: B1 VH with T28P, S30R, Y32H, I34V, N35S, F101S
VL: not shown

- binding result [1]: no binding
- EC50 [6]: 1.37 nM
- Fold Improvement [7]: 0.1 fold
- Kd [5]: 156 nM
B14: mAb11 (antibody, V domains shown)
VH: B1 VH with I51V, V54F, F55L, T59N, F101G, E102I, F107L
VL: not shown

- Fold improvement over Parent [12]: 1.2 fold
- Fold improvement over Parent [13]: 17 fold
- Fold improvement over Parent [14]: 7.9 fold
- EC50 [8]: 1.09 nM
- EC50 [9]: 0.75 nM
- Kd [10]: 14 nM
- EC50 [11]: 0.942 nM
B20: mAb37 (antibody, V domains shown)
VH: B15 VH with S30R, D31S, A106R
VL: not shown

- Fold improvement over Parent [12]: 0.9 fold
- Fold improvement over Parent [13]: 31 fold
- Fold improvement over Parent [14]: 7.2 fold
- EC50 [8]: 1.19 nM
- EC50 [9]: 1.01 nM
- Kd [10]: 7.7 nM
B21: mAb36 (antibody, V domains shown)
VH: B15 VH with D31S, S35N, A106R
VL: not shown
